The values that follow come from the Human Domainome abundance scans (Beltran et al. 2025).

± gives the uncertainty stated by the source.

The chains are these.
B1: Histone H1t, residues 44 to 112; numbered along this chain, P22492 (parent)
chain: VSKLITEALSVSQERVGMSLVALKKALAAAGYDVEKNNSRIKLSLKSLVNKGILVQTRGTGASGSFKLS

This data set covers variants of B1. As to the kind of experiment: abundance fitness (aPCA) (normalised: wild type 0, dead -1); higher = more abundant; growth selection in yeast, the domain comes from the species named. Particulars: Homo sapiens.
For VSKLITEALSVSQERVGMSLVALKKALAAAGYDVEKNNSRIKLSLKSLVNGGILVQTRGTGASGSFKLS [K51G], the abundance fitness was -0.322 ± 0.097. VSKLITEALSVSQERVGMSLVALKKALAAAGYDVEKNNSRIKLSLKSLVNPGILVQTRGTGASGSFKLS [K51P]: the abundance fitness is -0.323 ± 0.036. As for VSKLITEALSVSQERVGMSLVALKKALAAAGYDVEKNNSRIKLSLKSLVNLGILVQTRGTGASGSFKLS [K51L], the figure is -0.281 ± 0.031. As for VSKLITEALSVSQERVGMSLVALKKALAAAGYDVEKNNSRIKLSLKSLVNAGILVQTRGTGASGSFKLS [K51A], the figure is -0.164 ± 0.056. In the case of VSKLITEALSVSQERVGMSLVALKKALAAAGYDVEKNNSRIKLSLKSLVNEGILVQTRGTGASGSFKLS [K51E], the abundance fitness turned out to be 0.016 ± 0.078. As for VSKLITEALSVSQERVGMSLVALKKALAAAGYDVEKNNSRIKLSLKSLVNDGILVQTRGTGASGSFKLS [K51D], the figure is -0.383 ± 0.13; as for VSKLITEALSVSQERVGMSLVALKKALAAAGYDVEKNNSRIKLSLKSLVNMGILVQTRGTGASGSFKLS [K51M], -0.258 ± 0.053; as for VSKLITEALSVSQERVGMSLVALKKALAAAGYDVEKNNSRIKLSLKSLVNNGILVQTRGTGASGSFKLS [K51N], -0.081 ± 0.11.

As for VSKLITEALSVSQERVGMSLVALKKALAAAGYDVEKNNSRIKLSLKRLVNKGILVQTRGTGASGSFKLS [S47R], the abundance fitness is -0.087 ± 0.058. The result for VSKLITEALSVSQERVGMSLVALKKALAAAGYDVEKNNSRIKLSLKQLVNKGILVQTRGTGASGSFKLS [S47Q] reads 0.02 ± 0.041; that for VSKLITEALSVSQERVGMSLVALKKALAAAGYDVEKNNSRIKLSLKFLVNKGILVQTRGTGASGSFKLS [S47F], -0.41 ± 0.1; that for VSKLITEALSVSQERVGMSLVALKKALAAAGYDVEKNNSRIKLSLKTLVNKGILVQTRGTGASGSFKLS [S47T], 0.01 ± 0.043. As for VSKLITEALSVSQERVGMSLVALKKALAAAGYDVEKNNSRIKLSLKELVNKGILVQTRGTGASGSFKLS [S47E], the figure is 0.232 ± 0.1; as for VSKLITEALSVSQERVGMSLVALKKALAAAGYDVEKNNSRIKLSLKKLVNKGILVQTRGTGASGSFKLS [S47K], -0.191 ± 0.089; as for VSKLITEALSVSQERVGMSLVALKKALAAAGYDVEKNNSRIKLSLKNLVNKGILVQTRGTGASGSFKLS [S47N], -0.156 ± 0.22. As for VSKLITEALSVSQERVGMSLVALKKALAAAGYDVEKNNSRIKLSLKHLVNKGILVQTRGTGASGSFKLS [S47H], the figure is -0.13 ± 0.082; as for VSKLITEALSVSQERVGMSLVALKKALAAAGYDVEKNNSRIKLSLKMLVNKGILVQTRGTGASGSFKLS [S47M], -0.05 ± 0.066; as for VSKLITEALSVSQERVGMSLVALKKALAAAGYDVEKNNSRIKLSLKYLVNKGILVQTRGTGASGSFKLS [S47Y], -0.23 ± 0.11. For the variant VSKLITEALSVSQERVGMSLVALKKALAAAGYDVEKNNSRIKLSLKILVNKGILVQTRGTGASGSFKLS [S47I], the abundance fitness was -0.587 ± 0.24. As for VSKLITEALSVSQERVGMSLVALKKALAAAGYDVEKNNSRIKLSLKDLVNKGILVQTRGTGASGSFKLS [S47D], the figure is -0.07 ± 0.18; as for VSKLITEALSVSQERVGMSLVALKKALAAAGYDVEKNNSRIKLSLKLLVNKGILVQTRGTGASGSFKLS [S47L], -0.228 ± 0.033; as for VSKLITEALSVSQERVGMSLVALKKALAAAGYDVEKNNSRIKLSLKVLVNKGILVQTRGTGASGSFKLS [S47V], -0.307 ± 0.071. The result for VSKLITEALSVSQERVGMSLVALKKALAAAGYDVEKNNSRIKLSLKGLVNKGILVQTRGTGASGSFKLS [S47G] reads -0.465 ± 0.12; that for VSKLITEALSVSQERVGMSLVALKKALAAAGYDVEKNNSRIKLSLKWLVNKGILVQTRGTGASGSFKLS [S47W], -0.143 ± 0.09. The result for VSKLITEALSVSQERVGMSLVALKKALAAAGYDVEKNNSRIKLSLKSLWNKGILVQTRGTGASGSFKLS [V49W] reads -0.495 ± 0.34. On to VSKLITEALSVSQERVGMSLVALKKALAAAGYDVEKNNSRIKLSLKSLYNKGILVQTRGTGASGSFKLS [V49Y], for which the abundance fitness is -0.135 ± 0.049. As for VSKLITEALSVSQERVGMSLVALKKALAAAGYDVEKNNSRIKLSLKSLANKGILVQTRGTGASGSFKLS [V49A], the figure is -0.336 ± 0.3. Turning to VSKLITEALSVSQERVGMSLVALKKALAAAGYDVEKNNSRIKLSLKSLDNKGILVQTRGTGASGSFKLS [V49D], the abundance fitness was -0.416 ± 0.48. The result for VSKLITEALSVSQERVGMSLVALKKALAAAGYDVEKNNSRIKLSLKSLMNKGILVQTRGTGASGSFKLS [V49M] reads 0.062 ± 0.044. VSKLITEALSVSQERVGMSLVALKKALAAAGYDVEKNNSRIKLSLKSLHNKGILVQTRGTGASGSFKLS [V49H]: the abundance fitness was -0.432 ± 0.083. For the variant VSKLITEALSVSQERVGMSLVALKKALAAAGYDVEKNNSRIKLSLKSLRNKGILVQTRGTGASGSFKLS [V49R], the abundance fitness is -0.262 ± 0.2. The result for VSKLITEALSVSQERVGMSLVALKKALAAAGYDVEKNNSRIKLSLKSLNNKGILVQTRGTGASGSFKLS [V49N] reads -0.54 ± 0.052. As for VSKLITEALSVSQERVGMSLVALKKALAAAGYDVEKNNSRIKLSLKSLLNKGILVQTRGTGASGSFKLS [V49L], the figure is 0.052 ± 0.035; as for VSKLITEALSVSQERVGMSLVALKKALAAAGYDVEKNNSRIKLSLKSLPNKGILVQTRGTGASGSFKLS [V49P], -0.434 ± 0.12; as for VSKLITEALSVSQERVGMSLVALKKALAAAGYDVEKNNSRIKLSLKSLINKGILVQTRGTGASGSFKLS [V49I], -0.026 ± 0.054. As to VSKLITEALSVSQERVGMSLVALKKALAAAGYDVEKNNSRIKLSLKSLQNKGILVQTRGTGASGSFKLS [V49Q], the abundance fitness was -0.323 ± 0.079. The result for VSKLITEALSVSQERVGMSLVALKKALAAAGYDVEKNNSRIKLSLKSLFNKGILVQTRGTGASGSFKLS [V49F] reads -0.056 ± 0.033. The result for VSKLITEALSVSQERVGMSLVALKKALAAAGYDVEKNNSRIKLSLKSLSNKGILVQTRGTGASGSFKLS [V49S] reads -0.423 ± 0.074; that for VSKLITEALSVSQERVGMSLVALKKALAAAGYDVEKNNSRIKLSLKSLKNKGILVQTRGTGASGSFKLS [V49K], -0.173 ± 0.044.
